Measurements from US20230348560A1.

Biological target: HLA-G1 isoform stably expressed on THP1 cells (human) (UniProt P17693)
Test: cell-based or functional assay

With “full length ILT2 (pNT-110 SFG-ILT2-T2A-ΔCD19) (from UniProt Q8NHL6 24-650) (receptor)” the luciferase activity of THP1-HLA-G1-GFPffluc targets after 24 h coculture (E:T 5:1 and 1:1) was greater than 100000 light units.
